# Source: patent publication US20170246255
# Where a chain is given by its changes, count along the chain named.
# T1: GLP-1 (7-37)
# T1 chain: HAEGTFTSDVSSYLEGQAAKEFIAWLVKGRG
# T2: GLP-1 (3DMA)
# T2 chain: T1 chain with E3X
# T3: TLE-modified GLP-1 (7-37) analog
# T3 chain: T1 chain with E3X
# T4: GLP-1 (BM)
# T4 chain: T1 chain with E3X
# B1: human DPP IV (protein)
# chain: SRKTYTLTDYLKNTYRLKLYSLRWISDHEYLYKQENNILVFNAEYGNSSVFLENSTFDEFGHSINDYSISPDGQFILLEYNYVKQWRHSYTASYDIYDLNKRQLITEERIPNNTQWVTWSPVGHKLAYVWNNDIYVKIEPNLPSYRITWTGKEDIIYNGITDWVYEEEVFSAYSALWWSPNGTFLAYAQFNDTEVPLIEYSFYSDESLQYPKTVRVPYPKAGAVNPTVKFFVVNTDSLSSVTNATSIQITAPASMLIGDHYLCDVTWATQERISLQWLRRIQNYSVMDICDYDESSGRWNCLVARQHIEMSTTGWVGRFRPSEPHFTLDGNSFYKIISNEEGYRHICYFQIDKKDCTFITKGTWEVIGIEALTSDYLYYISNEYKGMPGGRNLYKIQLSDYTKVTCLSCELNPERCQYYSVSFSKEAKYYQLRCSGPGLPLYTLHSSVNDKGLRVLEDNSALDKMLQNVQMPSKKLDFIILNETKFWYQMILPPHFDKSKKYPLLLDVYAGPCSQKADTVFRLNWATYLASTENIIVASFDGRGSGYQGDKIMHAINRRLGTFEVEDQIEAARQFSKMGFVDNKRIAIWGWSYGGYVTSMVLGSGSGVFKCGIAVAPVSRWEYYDSVYTERYMGLPTPEDNLDHYRNSTVMSRAENFKQVEYLLIHGTADDNVHFQQSAQISKALVDVGVDFQAMWYTDEDHGIASSTAHQHIYTHMSHFIKQCFSLP
# Tests used:
# GLP-1 (7-37) = molecular target: T1, GLP-1 (7-37)
# GLP-1 (3DMA) = molecular target: T2, GLP-1 (3DMA)
# [1] = molecular target: T3, TLE-modified GLP-1 (7-37) analog
# GLP-1 (BM) = molecular target: T4, GLP-1 (BM)
protein,measurement,setting,value
B1,"cleavage of the peptide by the enzyme, HPLC/MS after two hours",GLP-1 (7-37),treatment with DPP IV resulted in a time dependent degradation of GLP-1
same,"cleavage of the peptide by the enzyme, HPLC/MS",GLP-1 (3DMA),both GLP-1 (3DMA) and GLP-1 (BM) were resistant to cleavage by DPP IV in comparison to native GLP-1
same,"cleavage of the peptide by the enzyme, HPLC/MS after two hours",[1],TLE-modified GLP-1 is resistant to degradation by DPP IV
same,"cleavage of the peptide by the enzyme, HPLC/MS",GLP-1 (BM),both GLP-1 (3DMA) and GLP-1 (BM) were resistant to cleavage by DPP IV in comparison to native GLP-1
